Where no end group is shown, it is not given here. [ ]: non-standard residue; d: D form. pY = N[C@@H](Cc1ccc(OP(=O)(O)O)cc1)C(=O)O

Data on five molecules can be found in publication PMC12657763, “SH2-mediated steric occlusion of the C2 domain regulates autoinhibition of SHIP1 inositol 5-phosphatase” (The Journal of Biological Chemistry, 2025).

Sequences and labels used below:
B2: mNG-SHIP1(FL) (enzyme, human, UniProt Q92835-2 1-1188, looked up)
chain: MVPCWNHGNITRSKAEELLSRTGKDGSFLVRASESISRAYALCVLYRNCVYTYRILPNEDDKFTVQASEGVSMRFFTKLDQLIEFYKKENMGLVTHLQYPVPLEEEDTGDDPEEDTESVVSPPELPPRNIPLTASSCEAKEVPFSNENPRATETSRPSLSETLFQRLQSMDTSGLPEEHLKAIQDYLSTQLAQDSEFVKTGSSSLPHLKKLTTLLCKELYGEVIRTLPSLESLQRLFDQQLSPGLRPRPQVPGEANPINMVSKLSQLTSLLSSIEDKVKALLHEGPESPHRPSLIPPVTFEVKAESLGIPQKMQLKVDVESGKLIIKKSKDGSEDKFYSHKKILQLIKSQKFLNKLVILVETEKEKILRKEYVFADSKKREGFCQLLQQMKNKHSEQPEPDMITIFIGTWNMGNAPPPKKITSWFLSKGQGKTRDDSADYIPHDIYVIGTQEDPLSEKEWLEILKHSLQEITSVTFKTVAIHTLWNIRIVVLAKPEHENRISHICTDNVKTGIANTLGNKGAVGVSFMFNGTSLGFVNSHLTSGSEKKLRRNQNYMNILRFLALGDKKLSPFNITHRFTHLFWFGDLNYRVDLPTWEAETIIQKIKQQQYADLLSHDQLLTERREQKVFLHFEEEEITFAPTYRFERLTRDKYAYTKQKATGMKYNLPSWCDRVLWKSYPLVHVVCQSYGSTSDIMTSDHSPVFATFEAGVTSQFVSKNGPGTVDSQGQIEFLRCYATLKTKSQTKFYLEFHSSCLESFVKSQEGENEEGSEGELVVKFGETLPKLKPIISDPEYLLDQHILISIKSSDSDESYGEGCIALRLEATETQLPIYTPLTHHGELTGHFQGEIKLQTSQGKTREKLYDFVKTERDESSGPKTLKSLTSHDPMKQWEVTSRAPPCSGSSITEIINPNYMGVGPFGPPMPLHVKQTLSPDQQPTAWSYDQPPKDSPLGPCRGESPPTPPGQPPISPKKFLPSTANRGLPPRTQESRPSDLGKNAGDTLPQEDLPLTKPEMFENPLYGSLSSFPKPAPRKDQESPKMPRKEPPPCPEPGILSPSIVLTKAQEADRGEGPGKQVPAPRLRSFTCSSSAEGRAAGGDKSQGKPKTPVSSQAPVPAKRPIKPSRSEINQQTPPTPTPRPPLPVKSPAVLHLQHSKGRDYRDNTELPHHGKHRPEEGPPGPLGRTAMQ

The target of data set [1] is pY-ITIM peptide …(pY)SLIK, conjugated to the supported membrane. In words: single-molecule TIRF-M dwell time on supported lipid bilayers; pY-ITIM peptide conjugated to the membrane (2% PI(3,4,5)P3, 2% MCC-PE, 96% DOPC); 20–50 pM mNG-SHIP1 in solution; 23 °C; single or double exponential fit of dwell times.
Data set [2] addresses mNG-SHIP1(ΔCTD) (human). Briefly: single-molecule photobleaching (TIRF-M); mNG-tagged SHIP1 bound to supported lipid bilayers with conjugated pY peptides (2% PI(3,4,5)P3, 2% MCC-PE, 96% DOPC); steps of photobleaching counted.
The target of data set [3] is mNG-SHIP1(ΔCTD) (human). Briefly: single-molecule brightness distribution (TIRF-M); mNG-SHIP1 bound to pY peptides on supported lipid bilayers; 50 pM mNG-SHIP1(FL), 50 pM mNG-SHIP1(ΔCTD) or 20 pM mNG-mSHIP1(ΔCTD); particle brightness in the second frame of each trajectory.
The data set “mNG-SHIP1(FL)” concerns the target B2. Briefly: TIRF-M membrane recruitment (bulk mNG fluorescence on supported lipid bilayers); pY-ITIM peptide conjugated to the membrane (2% PI(3,4,5)P3, 2% MCC-PE, 96% DOPC); 100 pM mNG-SHIP1 in solution; membrane density normalized to mNG-SHIP1(FL). The settings on record: both partners purified.
Data set [4] deals with the molecule itself. Briefly: single-molecule photobleaching (TIRF-M); mNG-tagged SHIP1 bound to supported lipid bilayers with conjugated pY peptides (2% PI(3,4,5)P3, 2% MCC-PE, 96% DOPC); steps of photobleaching counted.
Data set [5] concerns the molecule itself. Briefly: SEC; purified mNG-SHIP1(RBD) on a size-exclusion chromatography column, multiple protein concentrations. (In general: SEC sorts molecules by how far they enter the pores of the column.)

In data set [1], mNG-SHIP1(ΔCTD) (domain or fragment) returned a membrane dwell time τ1 of 0.359 s, a membrane dwell time τ1 (dimers only) of 1.79 s and a membrane dwell time τ2 of 1.83 s. Besides, the stoichiometry N with mNG-SHIP1(ΔCTD) (human) [2] turned out to be 2. In the data set with mNG-SHIP1(ΔCTD) (human) [3], the estimated fraction existing as dimers (corrected for mNG maturation) is 26% and the fraction of legitimate dimers with two mNG visible came out at 13%.
mNG-mSHIP1(ΔCTD) (domain or fragment): in data set [1], the membrane dwell time τ1 was 0.409 s.

B1: pY-ITIM peptide CKTEAENTIT(pY)SLIK, conjugated to the supported membrane (peptide)
peptide: C(MCC‑PE lipid)KTEAENTIT[pY]SLIK
notes: cysteine added to the N terminus for coupling to the maleimide lipid; also called membrane-conjugated pY-ITIM peptides; pY-conjugated peptide; source: synthetic peptide (Elim Biopharmaceuticals), covalently coupled to MCC-PE lipids of the supported membrane
Turning to B1, in the data set with mNG-SHIP1(FL), the binding result is on record as “binds”.
For B2, the “stoichiometry N” value in data set [4] came to 2.

B3: mNG-SHIP1(RBD) (domain or fragment, human, UniProt Q92835-2 151-290, looked up)
chain: ATETSRPSLSETLFQRLQSMDTSGLPEEHLKAIQDYLSTQLAQDSEFVKTGSSSLPHLKKLTTLLCKELYGEVIRTLPSLESLQRLFDQQLSPGLRPRPQVPGEANPINMVSKLSQLTSLLSSIEDKVKALLHEGPESPH
notes: the clone is UniProt Q92835 isoform 2, missing V117; A GGGGG linker stands between mNG and SHIP1; 42.7 kDa for the monomeric species; also called SHIP1(RBD) fused to an mNeonGreen (mNG); his10-mNG-GGGGG-SHIP1 (RBD, 151–290 amino acids); source: E. coli BL21 (DE3) Star, purified (HiTrap chelating column with CoCl2, TEV cleavage, Superdex 200); not shown: His10, N-terminal, cleaved; mNeonGreen, …
In the case of B3, the “stoichiometry N” value in data set [5] came out at 2.

As usually defined, the stoichiometry N is a count of units in the complex or per binding partner.
